Assay results reported in patent US20010011078A1 (University of Texas, published 2001).

Key:
[1] = system: T1, DFF45 (45-kDa subunit of DNA fragmentation factor), native human protein
T1 sequence: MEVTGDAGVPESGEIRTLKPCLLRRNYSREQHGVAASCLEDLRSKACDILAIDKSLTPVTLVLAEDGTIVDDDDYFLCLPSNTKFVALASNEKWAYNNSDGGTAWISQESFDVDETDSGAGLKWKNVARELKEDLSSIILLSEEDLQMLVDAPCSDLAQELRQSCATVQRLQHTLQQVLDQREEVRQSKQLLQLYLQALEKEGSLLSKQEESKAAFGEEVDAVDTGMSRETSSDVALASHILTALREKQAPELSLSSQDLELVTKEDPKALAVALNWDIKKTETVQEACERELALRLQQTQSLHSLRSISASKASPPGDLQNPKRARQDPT

[2] = system: poly(ADP-ribose) polymerase (PARP)
[3] = system: T2, DFF40 (40-kDa subunit of DNA fragmentation factor), native human protein
T2 sequence: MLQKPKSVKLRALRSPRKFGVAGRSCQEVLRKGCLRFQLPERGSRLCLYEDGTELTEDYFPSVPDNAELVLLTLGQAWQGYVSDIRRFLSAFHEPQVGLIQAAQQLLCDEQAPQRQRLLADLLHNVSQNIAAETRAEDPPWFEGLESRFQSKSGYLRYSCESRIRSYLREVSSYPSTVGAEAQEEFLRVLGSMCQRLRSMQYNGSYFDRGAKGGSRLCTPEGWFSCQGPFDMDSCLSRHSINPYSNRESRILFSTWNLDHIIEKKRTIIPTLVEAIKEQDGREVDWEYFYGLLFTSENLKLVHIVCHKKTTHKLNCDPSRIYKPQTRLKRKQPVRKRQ

[4] = system: T3, DFF45 fusion protein with a six-histidine tag at the NH2-terminus
T3 sequence: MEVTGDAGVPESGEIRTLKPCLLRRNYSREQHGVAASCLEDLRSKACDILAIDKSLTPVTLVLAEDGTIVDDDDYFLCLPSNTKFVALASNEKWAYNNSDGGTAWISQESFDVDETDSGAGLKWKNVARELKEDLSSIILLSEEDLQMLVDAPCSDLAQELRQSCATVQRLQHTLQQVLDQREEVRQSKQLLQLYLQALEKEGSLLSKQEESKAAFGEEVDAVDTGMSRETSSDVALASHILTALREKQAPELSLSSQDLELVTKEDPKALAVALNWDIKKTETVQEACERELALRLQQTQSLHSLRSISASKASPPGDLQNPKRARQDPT

[5] = target: recombinant DFF40 tagged with six histidine at its C-terminus (human) (UniProt O76075); assay: cell-based or functional assay
[6] = target: T4, DFF40 (40-kDa subunit of DNA fragmentation factor), native human protein (human, UniProt O76075 1-338); assay: co-elution from the Mono Q column (last purification step), SDS-PAGE with Coomassie stain
T4 construct: Native protein purified from HeLa S-100 as part of the DFF heterodimer; also called 40-kDa polypeptide
T4 sequence: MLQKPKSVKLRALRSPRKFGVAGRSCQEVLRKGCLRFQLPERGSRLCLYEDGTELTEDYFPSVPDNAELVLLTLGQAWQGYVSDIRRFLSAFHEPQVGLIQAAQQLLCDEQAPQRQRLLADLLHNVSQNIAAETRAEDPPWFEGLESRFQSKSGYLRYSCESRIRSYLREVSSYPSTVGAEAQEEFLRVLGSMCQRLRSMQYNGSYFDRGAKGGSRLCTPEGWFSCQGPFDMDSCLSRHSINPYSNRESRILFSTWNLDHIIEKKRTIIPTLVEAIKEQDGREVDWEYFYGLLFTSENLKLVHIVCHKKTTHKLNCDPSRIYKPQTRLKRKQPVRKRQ
Protocol: Ammonium sulfate (1 M) was added directly to the SP-Sepharose 0.5 M eluate. After rotating at 4° C. for 1 hr, the sample were centrifuged at 15,000 rpm for 30 min in a Sovall IA-600 rotor. The supernate was directly loaded onto a 100 ml phenyl Sepharose column equilibrated with buffer A containing 1 M ammonium sulfate and 0.5 M NaCl. The column was washed with three bed volumes of buffer A containing 1 M ammonium sulfate and 0.5 M NaCl and the bound material was eluted with two bed volumes of buffer A. […] was added to the phenyl Sepharose eluate to 50% saturation. After stirring at 4° C. for 5 hr, the sample was centrifuged at 15,000 rpm for 15 min in a Sovall JA-600 rotor. The pellet was resuspended in buffer A and loaded onto a Superalex-200 16/60 gel filtration column (Pharmacia) equilibrated with buffer A and eluted with the same buffer. Fractions of 4 ml were collected and assayed for DFF activity. The active fractions from the gel filtration column were pooled and loaded onto a MonoS 10/10 column (Pharmacia) equilibrated with buffer A. The column was washed with 50 ml of buffer A and eluted with a 200 ml 0-0.2 M linear NaCl gradient. […]
DFF activity eluted from a Mono Q column, the last step of the purification, at about 250 mM NaCl. […] No other proteins were detected in fraction containing the peak of DFF activity.

## caspase-3 (active recombinant)
Lamin B1
  time course of cleavage in isolated nuclei (immunoblot): the rate of lamin B1 cleavage by caspase-3 remained the same with or without DFF
[1]
  cleavage of biotinylated DFF (SDS-PAGE, streptavidin-peroxidase chemiluminescence): Incubation with caspase-3 resulted in the cleavage of the 45-kDa subunit into fragments of molecular masses of 30 kDa and 11 kDa
[2]
  rate of cleavage in isolated nuclei (immunoblot): The same conclusion was obtained when the rate of cleavage of PARP was measured
[3]
  cleavage of biotinylated DFF (SDS-PAGE, streptavidin-peroxidase chemiluminescence): the 40-kDa subunit remained intact
[4]
  cleavage of the fusion protein (SDS-PAGE): Incubation of this fusion protein with caspase-3 resulted in its cleavage into three fragments of 30 kDa, 18 kDa and 11 kDa at the early time point

## histone H1
[5]
  DNase activity of A-DFF40 on purified plasmid DNA: > 10 fold

B1: DFF45 (45-kDa subunit of DNA fragmentation factor), native human protein (other)
chain: MEVTGDAGVPESGEIRTLKPCLLRRNYSREQHGVAASCLEDLRSKACDILAIDKSLTPVTLVLAEDGTIVDDDDYFLCLPSNTKFVALASNEKWAYNNSDGGTAWISQESFDVDETDSGAGLKWKNVARELKEDLSSIILLSEEDLQMLVDAPCSDLAQELRQSCATVQRLQHTLQQVLDQREEVRQSKQLLQLYLQALEKEGSLLSKQEESKAAFGEEVDAVDTGMSRETSSDVALASHILTALREKQAPELSLSSQDLELVTKEDPKALAVALNWDIKKTETVQEACERELALRLQQTQSLHSLRSISASKASPPGDLQNPKRARQDPT
notes: Native protein, purified from HeLa S-100 as part of the DFF heterodimer, or endogenous in 293 and U937 cell extracts; also called 45-kDa polypeptide; endogenous protein
[6]
  binding result: binds
